The values that follow come from patent publication US20210347908A1 (ELPISCIENCE SUZHOU BIOPHARMA, published 2021).

Assay [1] addresses T1, biotin labeled soluble human SIRPα v1 ECD recombinant protein (human, UniProt P78324 31-373, biotin labeled).
T1 construct: extracellular domain
The experiment in a line: competitive ELISA, biotin-SIRPα v1 ECD to coated CD47 ECD. The procedure:
Competitive ELISA assay was used to determine whether the purified hybridoma antibodies can block CD47 and SIRPα interaction or CD47 and SIRPγ interaction. Briefly, for CD47 and SIRPα interaction blocking activity detection, antibody and biotin labeled soluble human SIRPα v1 ECD recombinant protein were co-incubated with ELISA microplate coated human CD47 ECD recombinant protein.
For CD47 and SIRPγ interaction blocking activity detection, antibody and biotin labeled soluble human CD47 ECD recombinant protein were co-incubated with ELISA microplate coated human SIRPγ ECD recombinant protein. After washing, horseradish peroxidase labeled streptavidin (HRP-SA, Sigma) was added and incubated at 37° C. for 1 hour. Then, 100 μl/well of TMB solution (Biotechnology) was added. After incubation for 15 minutes at room temperature, the reaction was stopped by the addition of 50 μl of 1N HCl. OD 450 nm was read. Blocking ratio and IC₅₀ was calculated. In comparison with other known anti-SIRPα antibodies, 022, 050, 055, and 074 cannot block CD47 and SIRPα interaction. In particular, all of the antibodies of the invention cannot block CD47 and SIRPγ interaction.

For assay [2], the target named is T1, biotin labeled soluble human SIRPα v1 …. In words: competitive ELISA; competitor 050. As for the experimental part: (§1) Competitive ELISA assay was used for epitope binning of 9 functional antibodies. Briefly excessive competitor antibody and biotin labeled soluble human SIRPα v1 ECD recombinant protein were co-incubated with ELISA microplate coated antibody. After washing, HRP-SA was added and incubated at 37° C. for 1 hour. Then, […] of TMB solution (Biotechnology) was added. After incubation for 15 minutes at room temperature, the reaction was stopped by the addition of […] of 1N HCl. OD 450 nm was read. Competition ratio was calculated. The antibodies that can compete each other for binding to SIRPα have the similar binding epitope.

The target is the same in assay [3]. The experiment in a line: competitive ELISA; competitor 29-AM4-5. As for the experimental part: as §1
Assay [4] has as its target T2, full length C57BL/6 mouse SIRPα stably expressed on CHOK1 cells (mouse (C57BL/6), UniProt P97797 32-513).
T2 construct: whole, on cells; also called CHOK1-C57BL/6 mouse SIRPα-2.22 cells
T2 sequence (looked up): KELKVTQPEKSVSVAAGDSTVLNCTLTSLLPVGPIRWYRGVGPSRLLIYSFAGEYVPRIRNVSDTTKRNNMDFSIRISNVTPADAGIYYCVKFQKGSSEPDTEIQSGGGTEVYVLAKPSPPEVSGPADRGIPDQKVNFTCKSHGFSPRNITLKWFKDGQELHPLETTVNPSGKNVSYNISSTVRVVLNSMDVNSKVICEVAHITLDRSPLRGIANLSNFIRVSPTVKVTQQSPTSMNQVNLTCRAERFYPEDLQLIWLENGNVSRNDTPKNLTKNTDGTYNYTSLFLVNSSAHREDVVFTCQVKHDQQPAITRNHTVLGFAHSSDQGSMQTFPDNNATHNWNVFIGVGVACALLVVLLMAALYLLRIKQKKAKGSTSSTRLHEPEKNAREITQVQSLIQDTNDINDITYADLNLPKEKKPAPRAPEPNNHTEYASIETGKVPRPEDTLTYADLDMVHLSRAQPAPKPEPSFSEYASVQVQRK
The experiment in a line: FACS on CHOK1 cells.

T1 sequence (P78324 31-373): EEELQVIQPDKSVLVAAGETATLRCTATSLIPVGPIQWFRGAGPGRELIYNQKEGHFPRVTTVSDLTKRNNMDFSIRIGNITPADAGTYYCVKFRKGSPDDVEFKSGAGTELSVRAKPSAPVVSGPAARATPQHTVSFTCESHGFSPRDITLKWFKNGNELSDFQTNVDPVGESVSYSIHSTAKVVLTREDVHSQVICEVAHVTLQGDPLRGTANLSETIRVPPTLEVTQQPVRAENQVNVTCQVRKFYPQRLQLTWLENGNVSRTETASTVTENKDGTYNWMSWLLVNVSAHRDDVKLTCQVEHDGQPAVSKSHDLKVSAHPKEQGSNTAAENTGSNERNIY

B1: Antibody 035 (hybridoma antibody) (antibody, V domains shown)
VH: QIQLVQSGPELRKPGETVKISCKASGYSFTNYAMNWVKQAPGKVLKWMGFINTYTGEPTYADDFKGRFAFSLETSASTAYLQINNLKNEDTATYFCTRTRGYYDFDGGAFDYWGQGTSLTVSS
VL: DIVMTQSQKFMSTSIGDRVSVTCKASQNVGTHLAWYQQKPGQSPKALIFSASYRYIGVPDRFTGSGSGTDFTLTITNVQSEDLAEYFCQQYNTYPLTFGAGTKLELK
notes: mouse hybridoma antibody
As to B1, the IC50 in assay [1] was 4.9 nM. The “% Competition” value in assay [2] was -3%; in assay [3] it was 50%.

B2: Antibody 001 (hybridoma antibody) (antibody, V domains shown)
VH: EVKLEESGGGLVQPGGSMKLSCVASGFTFRNYWMNWVRQSPERGLEWIAEISLKSNTYATHYAESVKGRFAISRDGSKSSFYLQMNDLRAEDTGIYYCTTFTKVVADWHLDVWGAGTTVTVSS
VL: DVLMTQTPLSLPVSLGDQASISCRSSQNIVHSNGNTYLEWYLQKPGQSPKLLIYKVSNRFSGVPDRFSGSGSGTDFTLRISRVEAEDLGVYYCFQGSHVPFTFGSGTKLEIK
notes: mouse hybridoma antibody
For the molecule B2, the half-inhibitory concentration (IC50) in assay [1] turned out to be 1.4 nM. Moreover, the entries for the “% Competition” value in assay [2] and in assay [3] were 5% and 92%, respectively. Moreover, the binding result in assay [4] is on record as “no binding (tested: 100 nM)”.

B3: Antibody 032 (hybridoma antibody) (antibody, V domains shown)
VH: EVRLEESGGGLVQPGGSMKLSCVVSGFTFRNYWMNWVRQSPERGLEWIAEITLKSNTYATHYAESVKGRFAISRDDSKSSFYLQMNDLRPEDTGIYYCTTFTKVVADWHLDVWGAGTTVTVSS
VL: DVLMTQTPLSLPVNLGDQASISCRSSQNIVHSNGNTYLEWYLQKPGQSPKLLIYKVSNRFSGVPDRFSGSGSGTDFTLRISRVEAEDLGVYYCFQGSHVPFTFGSGTKLEIK
notes: mouse hybridoma antibody
In the case of B3, the IC50 in assay [1] came to 0.2 nM. Further, the “% Competition” value came out at 4% in assay [2] and 83% in assay [3]. For the same molecule, in assay [4], the binding result is listed as “no binding (tested: 100 nM)”.

B4: Antibody 002 (hybridoma antibody) (antibody, V domains shown)
VH: EVKLEESGGGLVQPGGSMILSCVASGFTFRNYWMNWVRQSPERGLEWIAEITLKSNTYATHYAESVKGRFAISRDDSKSSFYLQMNDLRPEDTGIYYCTTFTKVVADWHLDVWGAGTTVTVSS
VL: DVLMTQTPLSLPVSLGDQASISCRSSQNIVHSNGNTYLEWYLQKPGQSPKLLIYKISNRFSGVPDRFSGSGSGTDFTLRISRVEAEDLGVYYCFQGSHVPFTFGSGTKLEIQ
notes: mouse hybridoma antibody
Take B4: the IC50 in assay [1] came out at 1.3 nM. In addition, the “% Competition” value in assay [2] was -13%; in assay [3], 87%. Moreover, in assay [4], the binding result was “no binding (tested: 100 nM)”.

B5: reference antibody HEFLB (antibody, V domains shown)
VH: EVQLVQSGAEVKKPGESLRISCKASGYSFTSYWVHWVRQMPGKGLEWMGNIDPSDSDTHYSPSFQGHVTLSVDKSISTAYLQLSSLKASDTAMYYCVRGGTGTLAYFAYWGQGTLVTVSS
VL: DVVMTQSPLSLPVTLGQPASISCRSSQSLVHSYGNTYLYWFQQRPGQSPRLLIYRVSNRFSGVPDRFSGSGSGTDFTLKISRVEAEDVGVYYCFQGTHVPYTFGGGTKVEIK
On to B5, for which the IC50 in assay [1] was found to be 0.5 nM. The “% Competition” value in assay [2] was found to be 4%; in assay [3], 70%.

B6: reference antibody 29-AM4-5 (antibody, V domains shown)
VH: EVQLVESGGGLVQPGGSLRLSCAASGFNISYYFIHWVRQAPGKGLEWVASVYSSFGYTYYADSVKGRFTISADTSKNTAYLQMNSLRAEDTAVYYCARFTFPGLFDGFFGAYLGSLDYWGQGTLVTVSS
VL: DIQMTQSPSSLSASVGDRVTITCRASQSVSSAVAWYQQKPGKAPKLLIYSASSLYSGVPSRFSGSRSGTDFTLTISSLQPEDFATYYCQQAVNWVGALVTFGQGTKVEIK
With B6, the IC50 in assay [1] turned out to be 1.4 nM. The “% Competition” value in assay [2] was found to be 7%; in assay [3], 91%.
